{
  "source": "patent US20260009052",
  "about": "“CAS12 PROTEINS AND USES THEREOF” (GUANGZHOU REFORGENE MEDICINE CO., LTD., published 2026)",
  "binders": {"B1": {"name": "C12-279 Reporter3 sgRNA ; Reporter3 target (ssRNA ; dsDNA)", "RNA": "GUAAUGCGUCUCCCAUUGACGCCUCACCUCGCGACGCAAUGAUG", "DNA 1": "CTCACCTCGCGACGCAATGATG", "DNA 2": "CATCATTGCGTCGCGAGGTGAG"}},
  "key": {"C12-279 D352R": {"target": "T1, C12-279 D352R (synthetic construct, D352R)", "T1 chain": "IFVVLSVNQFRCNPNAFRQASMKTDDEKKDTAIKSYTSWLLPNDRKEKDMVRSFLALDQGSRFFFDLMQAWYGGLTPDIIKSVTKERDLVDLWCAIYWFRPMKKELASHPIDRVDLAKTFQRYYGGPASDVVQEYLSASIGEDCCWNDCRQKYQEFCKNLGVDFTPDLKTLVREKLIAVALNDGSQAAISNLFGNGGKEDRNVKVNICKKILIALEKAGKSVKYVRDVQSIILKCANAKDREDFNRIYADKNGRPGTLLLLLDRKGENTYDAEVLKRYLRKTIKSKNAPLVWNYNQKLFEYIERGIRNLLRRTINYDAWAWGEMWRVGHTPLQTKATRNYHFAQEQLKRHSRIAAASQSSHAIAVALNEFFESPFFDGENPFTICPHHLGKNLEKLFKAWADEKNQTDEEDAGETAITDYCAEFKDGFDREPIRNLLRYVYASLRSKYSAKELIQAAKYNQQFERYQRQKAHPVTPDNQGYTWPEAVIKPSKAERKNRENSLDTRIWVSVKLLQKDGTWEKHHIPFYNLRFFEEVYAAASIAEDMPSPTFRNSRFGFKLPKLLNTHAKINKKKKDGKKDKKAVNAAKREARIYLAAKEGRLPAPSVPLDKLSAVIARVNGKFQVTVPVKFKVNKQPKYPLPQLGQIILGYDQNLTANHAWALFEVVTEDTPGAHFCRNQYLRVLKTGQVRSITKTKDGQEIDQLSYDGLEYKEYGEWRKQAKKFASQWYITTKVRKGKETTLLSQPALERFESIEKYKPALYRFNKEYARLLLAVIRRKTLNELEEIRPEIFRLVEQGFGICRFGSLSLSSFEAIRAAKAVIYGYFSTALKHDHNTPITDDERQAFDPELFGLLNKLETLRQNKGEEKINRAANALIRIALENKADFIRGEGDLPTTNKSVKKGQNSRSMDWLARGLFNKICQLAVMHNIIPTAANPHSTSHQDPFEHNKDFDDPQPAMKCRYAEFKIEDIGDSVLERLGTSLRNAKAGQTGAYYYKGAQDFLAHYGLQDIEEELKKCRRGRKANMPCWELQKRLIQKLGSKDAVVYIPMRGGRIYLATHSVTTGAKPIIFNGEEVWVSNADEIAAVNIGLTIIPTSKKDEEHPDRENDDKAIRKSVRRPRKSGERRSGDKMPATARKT", "test": "cell_activity; PAM TTG; +/-0.22", "experimental": "(§1) Transfection: transfection was performed 12-14 h after plating. 1.5 μL PEI (Yeasen Biotechnology, 40815ES03, Polyethylenimine Linear (PEI) MW25000) and 500 ng mutation clone plasmid were added to 100 μL Opti-MEM per well of the 24-well plate, mixed, and added to the NAAN cell line for cell transfection after placing at room temperature for 20 min. After overnight transfection, a fresh culture medium was replaced, and the culture was continued for 72 h, followed by flow cytometry. Editing efficiencies of different mutant clones were characterized by the proportion of GFP-positive cells.\n(§2) Editing efficiency of some selected mutants was tested in Reporter3 cell line using the same manner as described for the NAAN reporter system, except that the cell line was changed from NAAN cell line to Reporter3 cell line."}, "C12-279 L260R": {"target": "T2, C12-279 L260R (synthetic construct, L260R)", "T2 chain": "T1 chain with L260R, R352D", "test": "cell_activity; PAM TTG; +/-0.14", "experimental": "as §1, §2"}},
  "note": "Numbering of substitutions follows the chain as printed.",
  "data": [
    {"binder": "B1", "values": [
      {"measurement": "binding signal", "setting": "C12-279 D352R", "result": "1.18 fold of C12-279"},
      {"measurement": "binding signal", "setting": "C12-279 L260R", "result": "0.66 fold of C12-279"}
    ]}
  ]
}
